Reference: patent US20070225231A1
Read-outs that look alike come from different tables or passages of the source. Positions of bridges follow the written chain, without caps; N, C: chain ends. No end group written: not given here.

What was measured:
[1] = molecular target: peroxidase-anti-peroxidase (PAP) immune complexes (UniProt P00433); experiment: reverse ELISA: rabbit PAP pre-incubated with soluble histone; competitor: immobilised histone
[2] = molecular target: human C1q (human) (UniProt P02745); experiment: reverse ELISA: PAP on C1q-coated plate, no inhibitor
[3] = molecular target: histone (Sigma); experiment: reverse ELISA: rabbit PAP on histone-coated plate, no inhibitor
[4] = molecular target: highly purified FcγIIa (UniProt P12318); experiment: reverse ELISA: PAP on FcγIIa-coated plate, no inhibitor
[5] = molecular target: myelin basic protein (MBP) (Sigma); experiment: reverse ELISA: rabbit PAP on MBP-coated plate, no inhibitor
[6] = molecular target: histone (Sigma); experiment: reverse ELISA: IgG PAP binding to histones, no inhibitor
[7] = molecular target: highly purified FcγIIb (UniProt P31994); experiment: reverse ELISA: PAP on FcγIIb-coated plate, no inhibitor
[8] = molecular target: myelin basic protein (MBP) (Sigma); experiment: reverse ELISA: IgG PAP binding to MBP, no inhibitor
[9] = molecular target: human C1q (human) (UniProt P02745); experiment: reverse ELISA: PAP on C1q-coated plate, no inhibitor; remark: listed apart in the source
[10] = molecular target: highly purified FcγIII; experiment: reverse ELISA: PAP on FcγIII-coated plate, no inhibitor
[11] = molecular target: whole human IgG4 (human) [IgG part: P01861]; experiment: reverse ELISA: immune complexes on IgG4-coated plate, no inhibitor
[12] = molecular target: peroxidase-anti-peroxidase (PAP) immune complexes (UniProt P00433); experiment: reverse ELISA: rabbit PAP pre-incubated with soluble MBP; competitor: immobilised MBP
[13] = molecular target: peroxidase-anti-peroxidase (PAP) immune complexes (UniProt P00433); experiment: reverse ELISA: rabbit PAP pre-incubated with peptide; competitor: immobilised MBP
[14] = molecular target: peroxidase-anti-peroxidase (PAP) immune complexes (UniProt P00433); experiment: reverse ELISA: PAP pre-incubated with peptide; competitor: immobilised RF
[15] = molecular target: peroxidase-anti-peroxidase (PAP) immune complexes (UniProt P00433); experiment: reverse ELISA: PAP pre-incubated with peptide, then on C1q-coated plate; competitor: immobilised C1q
[16] = molecular target: peroxidase-anti-peroxidase (PAP) immune complexes (UniProt P00433); experiment: reverse ELISA: PAP pre-incubated with peptide; competitor: immobilised FcγIIa
[17] = molecular target: peroxidase-anti-peroxidase (PAP) immune complexes (UniProt P00433); experiment: reverse ELISA: immune complexes with peptide; competitor: immobilised IgG4
[18] = molecular target: peroxidase-anti-peroxidase (PAP) immune complexes (UniProt P00433); experiment: reverse ELISA: PAP pre-incubated with peptide; competitor: immobilised FcγIIb
[19] = molecular target: peroxidase-anti-peroxidase (PAP) immune complexes (UniProt P00433); experiment: reverse ELISA: rabbit PAP pre-incubated with peptide; competitor: immobilised histone
[20] = molecular target: peroxidase-anti-peroxidase (PAP) immune complexes (UniProt P00433); experiment: reverse ELISA: PAP pre-incubated with peptide; competitor: immobilised FcγIII
[21] = molecular target: human monomeric IgG (Research Diagnostics); experiment: RF test kit: peptide pre-incubated with human monomeric IgG, washed, then RF; competitor: RF
[22] = molecular target: peroxidase-anti-peroxidase (PAP) immune complexes (UniProt P00433); experiment: reverse ELISA: PAP pre-incubated with peptide; competitor: immobilised C1q
[23] = molecular target: peroxidase-anti-peroxidase (PAP) immune complexes (UniProt P00433); experiment: reverse ELISA: rabbit PAP pre-incubated with peptide; competitor: immobilised RF

Chain of peroxidase-anti-peroxidase (PAP) immune complexes (UniProt P00433) (P00433 31-338, one chain of several): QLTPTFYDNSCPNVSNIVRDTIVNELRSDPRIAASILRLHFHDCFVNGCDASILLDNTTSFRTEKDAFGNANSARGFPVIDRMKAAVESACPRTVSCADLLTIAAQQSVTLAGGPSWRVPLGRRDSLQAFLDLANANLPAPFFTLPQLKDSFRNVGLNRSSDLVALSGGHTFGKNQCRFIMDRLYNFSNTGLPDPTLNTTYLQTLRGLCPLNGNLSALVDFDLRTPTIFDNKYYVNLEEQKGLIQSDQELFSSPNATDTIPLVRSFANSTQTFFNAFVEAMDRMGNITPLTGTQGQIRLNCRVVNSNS
Chain of human C1q (human) (P02745 23-245 limits assumed, chain 1 of 3): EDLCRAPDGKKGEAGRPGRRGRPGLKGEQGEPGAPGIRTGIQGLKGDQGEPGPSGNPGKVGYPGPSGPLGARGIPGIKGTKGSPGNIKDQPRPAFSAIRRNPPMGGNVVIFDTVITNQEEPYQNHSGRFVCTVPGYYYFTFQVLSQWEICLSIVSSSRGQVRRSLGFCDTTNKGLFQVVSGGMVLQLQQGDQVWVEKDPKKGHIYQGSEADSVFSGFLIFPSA
Chain of human C1q (human) (P02746 28-253 limits assumed, chain 2 of 3, further chain): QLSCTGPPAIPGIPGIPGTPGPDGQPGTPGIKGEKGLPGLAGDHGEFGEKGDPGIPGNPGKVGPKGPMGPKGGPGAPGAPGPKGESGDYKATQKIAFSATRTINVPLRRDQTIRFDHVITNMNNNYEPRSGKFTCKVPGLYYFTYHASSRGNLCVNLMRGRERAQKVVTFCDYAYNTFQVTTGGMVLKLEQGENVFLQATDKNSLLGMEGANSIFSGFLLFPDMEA
Chain of human C1q (human) (P02747 29-245 limits assumed, chain 3 of 3, further chain): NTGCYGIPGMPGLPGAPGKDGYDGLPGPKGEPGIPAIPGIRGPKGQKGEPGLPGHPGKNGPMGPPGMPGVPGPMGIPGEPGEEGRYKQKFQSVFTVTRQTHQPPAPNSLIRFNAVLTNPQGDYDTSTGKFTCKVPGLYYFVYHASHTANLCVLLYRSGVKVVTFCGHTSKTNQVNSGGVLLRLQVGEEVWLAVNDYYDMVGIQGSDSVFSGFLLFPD
Chain of highly purified FcγIIa (P12318 34-217 limits assumed): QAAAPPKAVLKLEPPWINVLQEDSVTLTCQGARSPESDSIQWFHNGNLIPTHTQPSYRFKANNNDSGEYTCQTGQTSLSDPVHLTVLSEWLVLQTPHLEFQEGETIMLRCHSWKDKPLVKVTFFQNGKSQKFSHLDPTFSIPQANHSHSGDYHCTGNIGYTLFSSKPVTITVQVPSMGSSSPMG
Chain of highly purified FcγIIb (P31994 43-217 limits assumed): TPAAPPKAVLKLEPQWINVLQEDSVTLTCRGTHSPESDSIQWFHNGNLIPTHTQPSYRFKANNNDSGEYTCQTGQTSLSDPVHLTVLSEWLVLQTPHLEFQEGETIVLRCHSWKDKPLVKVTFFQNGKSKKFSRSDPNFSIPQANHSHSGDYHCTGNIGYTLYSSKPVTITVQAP
Chain of whole human IgG4 (human) [IgG part: P01861] (P01861 other isoform, or with tags, fused parts or gaps): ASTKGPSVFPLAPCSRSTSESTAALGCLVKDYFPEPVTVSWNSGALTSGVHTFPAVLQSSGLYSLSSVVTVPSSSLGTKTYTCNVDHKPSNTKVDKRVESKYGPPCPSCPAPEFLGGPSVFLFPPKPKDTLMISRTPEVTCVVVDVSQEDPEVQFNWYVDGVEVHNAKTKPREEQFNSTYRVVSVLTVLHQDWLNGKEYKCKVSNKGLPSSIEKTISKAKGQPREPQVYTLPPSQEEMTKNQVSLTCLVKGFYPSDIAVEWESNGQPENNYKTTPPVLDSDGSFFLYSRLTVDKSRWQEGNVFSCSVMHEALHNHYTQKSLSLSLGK

Molecule	OD 405 nm [13]	OD 405 nm [14]	OD 405 nm [15]	OD 450 nm [16]	OD 405 nm [17]	OD 450 nm [18]	OD 405 nm [19]	OD 450 nm [20]	OD 405 nm [21]	also measured
histone (Sigma)										OD 405 nm [1]: 0.057 OD
peroxidase-anti-peroxidase (PAP) immune complexes (from UniProt P00433 31-338)										OD 405 nm [2]: 2.35 OD; OD 405 nm [3]: 1.27 OD; OD 405 nm [4]: 1.6 OD; OD 450 nm [4]: 3.6 OD; OD 405 nm [5]: 1.03 OD; OD 405 nm [6]: 2.11 OD; OD 405 nm [7]: 1.39 OD; OD 450 nm [7]: 3.6 OD; OD 405 nm [8]: 2.34 OD; OD 405 nm [9]: 0.467 OD; OD 405 nm [10]: 1.59 OD; OD 450 nm [10]: 3.6 OD; OD 405 nm [11]: 0.716 OD
myelin basic protein (MBP) (Sigma)										OD 405 nm [12]: 0.139 OD
RCARHLGELVWCT (disulfide 2-12 (inferred)) [… (SEQ ID NO:5)]	0.569 OD	0.152 OD	0.247 OD	3.4 OD	0.191 OD	3.28 OD	0.359 OD	3.5 OD	1.31 OD	
DCAWHLGELAACT (cyclized by a disulfide bond between the two cysteine residues) [… (SEQ ID NO:42)]	0.706 OD	0.622 OD		1.48 OD	0.557 OD	1.07 OD	0.729 OD	1.34 OD	1.4 OD	
DCAFHLGELVWCT (cyclized by a disulfide bond between the two cysteine residues) [… (SEQ ID NO:3)]									0.962 OD	OD 405 nm [16]: 0.66 OD; OD 405 nm [18]: 0.51 OD; OD 405 nm [22]: 0.859 OD; OD 405 nm [23]: 0.267 OD; OD 405 nm [20]: 0.81 OD
DCARHLGELVWCT (disulfide 2-12 (inferred)) [… (SEQ ID NO:4)]	0.473 OD	0.109 OD	0.193 OD	2.54 OD	0.096 OD	1.95 OD	0.363 OD	2.53 OD	1.23 OD	
PCARHLGELVWCT (disulfide 2-12 (inferred)) [… (SEQ ID NO:41)]	0.489 OD	0.106 OD	0.205 OD	1.15 OD	0.129 OD	1.21 OD	0.444 OD	1.6 OD	1.32 OD	
APPDCARHLGELVWCT (cyclized by a disulfide bond between the two cysteine residues) [… (printed in Table 8 with SEQ ID NO:14)]					0.107 OD					
DCAAHLGELAACT (cyclized by a disulfide bond between the two cysteine residues) [… (SEQ ID NO:40)]			0.458 OD	2.43 OD		2.26 OD		2.41 OD	1.42 OD	
